Results on four molecules are retold here after patent US20140242080A1 (Hoffmann-La Roche, published 2014).

The target of assay [1] is T1, hu-MCSP(D3 domain)-avi-his (human, UniProt Q6UVK1 1582-2224).
T1 construct: Recombinant D3 domain with avi and his tags; also called human MCSP(D3 domain)-avi-his; Human MCSP D3
T1 sequence: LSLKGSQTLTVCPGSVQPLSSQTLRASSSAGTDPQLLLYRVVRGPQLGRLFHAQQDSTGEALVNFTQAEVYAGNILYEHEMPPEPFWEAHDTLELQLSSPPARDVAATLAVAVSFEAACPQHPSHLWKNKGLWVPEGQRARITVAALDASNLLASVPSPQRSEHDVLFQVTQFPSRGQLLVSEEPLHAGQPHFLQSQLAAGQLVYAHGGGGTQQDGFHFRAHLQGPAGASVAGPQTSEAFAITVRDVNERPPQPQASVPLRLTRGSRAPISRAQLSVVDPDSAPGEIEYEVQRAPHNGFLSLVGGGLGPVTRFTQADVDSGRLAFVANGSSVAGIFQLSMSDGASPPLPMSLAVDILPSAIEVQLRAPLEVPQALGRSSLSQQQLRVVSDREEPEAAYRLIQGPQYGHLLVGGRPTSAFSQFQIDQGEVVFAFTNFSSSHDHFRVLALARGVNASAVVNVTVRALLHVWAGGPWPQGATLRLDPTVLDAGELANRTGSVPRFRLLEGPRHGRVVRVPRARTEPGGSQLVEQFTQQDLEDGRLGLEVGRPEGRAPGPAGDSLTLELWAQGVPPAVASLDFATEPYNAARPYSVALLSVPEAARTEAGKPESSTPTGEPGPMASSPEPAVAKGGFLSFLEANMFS
As to the kind of experiment: ratio of ProteOn IgG KD, parent M4-3/ML2 against variant.

For assay [2], the target named is T2, cynomolgus MCSP D3 (cynomolgus, UniProt Q6UVK1 1582-2224 (human entry), limits assumed).
T2 construct: also called Cyno MCSP; cynomolgus homologue
T2 chain: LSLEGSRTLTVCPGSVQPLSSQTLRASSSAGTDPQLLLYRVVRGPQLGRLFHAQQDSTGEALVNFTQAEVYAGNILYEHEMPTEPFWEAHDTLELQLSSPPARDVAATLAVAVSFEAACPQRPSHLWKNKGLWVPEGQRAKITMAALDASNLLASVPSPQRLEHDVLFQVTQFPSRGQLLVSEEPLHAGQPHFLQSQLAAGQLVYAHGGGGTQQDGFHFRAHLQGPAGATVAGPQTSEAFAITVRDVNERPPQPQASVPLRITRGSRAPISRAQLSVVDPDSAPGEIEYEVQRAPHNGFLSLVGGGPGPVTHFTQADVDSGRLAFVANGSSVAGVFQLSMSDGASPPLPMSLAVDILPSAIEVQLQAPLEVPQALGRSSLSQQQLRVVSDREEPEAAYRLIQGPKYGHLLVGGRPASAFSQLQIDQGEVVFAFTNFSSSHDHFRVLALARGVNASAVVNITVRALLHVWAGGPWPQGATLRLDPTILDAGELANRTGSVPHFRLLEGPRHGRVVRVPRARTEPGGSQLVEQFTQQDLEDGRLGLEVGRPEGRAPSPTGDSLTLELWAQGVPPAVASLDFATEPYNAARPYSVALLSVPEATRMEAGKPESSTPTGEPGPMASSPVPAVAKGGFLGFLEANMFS
The assay is described as above.

Assay [3] deals with T1, hu-MCSP(D3 domain)-avi-his. Put plainly: SPR ProteOn XPR36, 25 C; IgG captured via anti-human F(ab')2, MCSP D3 as analyte.
Assay [4] has as its target T2, cynomolgus MCSP D3. The description is as above.
The target of assay [5] is T1, hu-MCSP(D3 domain)-avi-his. As to the kind of experiment: SPR Biacore T200, 25 C; avidity: MCSP D3 captured via anti-Penta His, IgG as analyte. The protocol: (§1) For analyzing the avidity of the interaction of different anti-MCSP IgGs to human and cynomolgus MCSP D3 direct coupling of around 9,500 resonance units (RU) of the anti-Penta His antibody (Qiagen) was performed on a CM5 chip at pH 5.0 using the standard amine coupling kit (Biacore, Freiburg/Germany). Antigens were captured for 60 s at 30 nM with 10 μl/min respectively. IgGs were passed at a concentration of 0.0064-100 nM with a flowrate of 30 μl/min through the flow cells over 280 s. The dissociation was monitored for 180 s. Bulk refractive index differences were corrected for by subtracting the response obtained on reference flow cell. […] For affinity measurements IgGs were captured on a CM5 sensorchip surface with immobilized anti human Fc. Capture IgG was coupled to the sensorchip surface by direct immobilization of around 9,500 resonance units (RU) at pH 5.0 using the standard amine coupling kit (Biacore, Freiburg/Germany). IgGs are captured for 25 s at 10 nM with 30 μl/min. Human and cynomolgus MCSP D3 were passed at a concentration of 2-500 nM with a flowrate of 30 μl/min through the flow cells over 120 s. The dissociation was monitored for 60 s. […] Bulk refractive index differences were corrected for by subtracting the response obtained on reference flow cell.

Assay [6] deals with T2, cynomolgus MCSP D3. The description is as above. On the procedure:
as §1

The target in assay [7] is T1, hu-MCSP(D3 domain)-avi-his. As to the kind of experiment: SPR Biacore T200, 25 C; affinity: IgG captured via anti-human Fc, MCSP D3 as analyte. On the procedure:
as §1
On the technique in general: Surface plasmon resonance follows binding to a sensor surface in real time, without labels.

Assay [8] has as its target T2, cynomolgus MCSP D3. The description is as above. The protocol: as §1
Assay [9] deals with T3, human CD3 expressed on Jurkat cells (human, UniProt P07766 23-207).
T3 construct: CD3 complex on Jurkat T cells; also called CD3 on Jurkat cells; huCD3
Put plainly: flow cytometry on Jurkat cells. On the procedure: (§2) Binding of the different bispecific constructs to CD3 on Jurkat cells (ATCC #TIB-152), and the respective tumor antigen on target cells, was determined by FACS. Briefly, cells were harvested, counted and checked for viability. 0.15-0.2 million cells per well (in PBS containing 0.1% BSA; 90 μl) were plated in a round-bottom 96-well plate and incubated with the indicated concentration of the bispecific constructs and corresponding IgG controls (10 μl) for 30 min at 4° C. […] After the incubation, cells were centrifuged (5 min, 350×g), washed with 150 μl PBS containing 0.1% BSA, resuspended and incubated for further 30 min at 4° C. with 12 μl/well of a FITC- or PE-conjugated secondary antibody. Bound constructs were detected using a FACSCantoII (Software FACS Diva). The “(scFv)₂” molecule was detected using a FITC-conjugated anti-His antibody (Lucerna, #RHIS-45F-Z). For all other molecules, a FITC- or PE-conjugated AffiniPure F(ab′)2 Fragment goat anti-human IgG Fcγ Fragment Specific (Jackson Immuno Research Lab #109-096-098/working solution 1:20, or #109-116-170/working solution 1:80, respectively) was used. Cells were washed by addition of 120 μl/well PBS containing 0.1% BSA and centrifugation at 350×g for 5 min. A second washing step was performed with 150 μl/well PBS containing 0.1% BSA. […] EC50 values were calculated using the GraphPad Prism software.
As a control, the equivalent maximum concentration of the corresponding IgGs and the background staining due to the labeled 2ndary antibody (goat anti-human FITC-conjugated AffiniPure F(ab′)2 Fragment, FcγFragment-specific, Jackson Immuno Research Lab #109-096-098) were assessed as well.

The target in assay [10] is T4, human MCSP expressed on tumor cells (Colo-38, WM266-4, A375, MV-3, HCT-116) (human, UniProt Q6UVK1 30-2322).
T4 construct: whole, on cells; also called huMCSP; MCSP on cells
Put plainly: flow cytometry on WM266-4 cells. On the procedure:
as §2
A general note: A flow cytometer gives signals particle by particle.

The target of assay [11] is T4, human MCSP expressed on tumor cells …. Put plainly: cell-based or functional assay.

T3 sequence (P07766 23-207 limits assumed): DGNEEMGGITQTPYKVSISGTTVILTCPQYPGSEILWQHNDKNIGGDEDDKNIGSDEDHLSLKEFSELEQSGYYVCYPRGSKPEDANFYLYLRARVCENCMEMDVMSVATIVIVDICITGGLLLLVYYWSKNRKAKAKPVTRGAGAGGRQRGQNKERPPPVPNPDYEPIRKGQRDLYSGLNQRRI
T4 sequence (Q6UVK1 30-2322): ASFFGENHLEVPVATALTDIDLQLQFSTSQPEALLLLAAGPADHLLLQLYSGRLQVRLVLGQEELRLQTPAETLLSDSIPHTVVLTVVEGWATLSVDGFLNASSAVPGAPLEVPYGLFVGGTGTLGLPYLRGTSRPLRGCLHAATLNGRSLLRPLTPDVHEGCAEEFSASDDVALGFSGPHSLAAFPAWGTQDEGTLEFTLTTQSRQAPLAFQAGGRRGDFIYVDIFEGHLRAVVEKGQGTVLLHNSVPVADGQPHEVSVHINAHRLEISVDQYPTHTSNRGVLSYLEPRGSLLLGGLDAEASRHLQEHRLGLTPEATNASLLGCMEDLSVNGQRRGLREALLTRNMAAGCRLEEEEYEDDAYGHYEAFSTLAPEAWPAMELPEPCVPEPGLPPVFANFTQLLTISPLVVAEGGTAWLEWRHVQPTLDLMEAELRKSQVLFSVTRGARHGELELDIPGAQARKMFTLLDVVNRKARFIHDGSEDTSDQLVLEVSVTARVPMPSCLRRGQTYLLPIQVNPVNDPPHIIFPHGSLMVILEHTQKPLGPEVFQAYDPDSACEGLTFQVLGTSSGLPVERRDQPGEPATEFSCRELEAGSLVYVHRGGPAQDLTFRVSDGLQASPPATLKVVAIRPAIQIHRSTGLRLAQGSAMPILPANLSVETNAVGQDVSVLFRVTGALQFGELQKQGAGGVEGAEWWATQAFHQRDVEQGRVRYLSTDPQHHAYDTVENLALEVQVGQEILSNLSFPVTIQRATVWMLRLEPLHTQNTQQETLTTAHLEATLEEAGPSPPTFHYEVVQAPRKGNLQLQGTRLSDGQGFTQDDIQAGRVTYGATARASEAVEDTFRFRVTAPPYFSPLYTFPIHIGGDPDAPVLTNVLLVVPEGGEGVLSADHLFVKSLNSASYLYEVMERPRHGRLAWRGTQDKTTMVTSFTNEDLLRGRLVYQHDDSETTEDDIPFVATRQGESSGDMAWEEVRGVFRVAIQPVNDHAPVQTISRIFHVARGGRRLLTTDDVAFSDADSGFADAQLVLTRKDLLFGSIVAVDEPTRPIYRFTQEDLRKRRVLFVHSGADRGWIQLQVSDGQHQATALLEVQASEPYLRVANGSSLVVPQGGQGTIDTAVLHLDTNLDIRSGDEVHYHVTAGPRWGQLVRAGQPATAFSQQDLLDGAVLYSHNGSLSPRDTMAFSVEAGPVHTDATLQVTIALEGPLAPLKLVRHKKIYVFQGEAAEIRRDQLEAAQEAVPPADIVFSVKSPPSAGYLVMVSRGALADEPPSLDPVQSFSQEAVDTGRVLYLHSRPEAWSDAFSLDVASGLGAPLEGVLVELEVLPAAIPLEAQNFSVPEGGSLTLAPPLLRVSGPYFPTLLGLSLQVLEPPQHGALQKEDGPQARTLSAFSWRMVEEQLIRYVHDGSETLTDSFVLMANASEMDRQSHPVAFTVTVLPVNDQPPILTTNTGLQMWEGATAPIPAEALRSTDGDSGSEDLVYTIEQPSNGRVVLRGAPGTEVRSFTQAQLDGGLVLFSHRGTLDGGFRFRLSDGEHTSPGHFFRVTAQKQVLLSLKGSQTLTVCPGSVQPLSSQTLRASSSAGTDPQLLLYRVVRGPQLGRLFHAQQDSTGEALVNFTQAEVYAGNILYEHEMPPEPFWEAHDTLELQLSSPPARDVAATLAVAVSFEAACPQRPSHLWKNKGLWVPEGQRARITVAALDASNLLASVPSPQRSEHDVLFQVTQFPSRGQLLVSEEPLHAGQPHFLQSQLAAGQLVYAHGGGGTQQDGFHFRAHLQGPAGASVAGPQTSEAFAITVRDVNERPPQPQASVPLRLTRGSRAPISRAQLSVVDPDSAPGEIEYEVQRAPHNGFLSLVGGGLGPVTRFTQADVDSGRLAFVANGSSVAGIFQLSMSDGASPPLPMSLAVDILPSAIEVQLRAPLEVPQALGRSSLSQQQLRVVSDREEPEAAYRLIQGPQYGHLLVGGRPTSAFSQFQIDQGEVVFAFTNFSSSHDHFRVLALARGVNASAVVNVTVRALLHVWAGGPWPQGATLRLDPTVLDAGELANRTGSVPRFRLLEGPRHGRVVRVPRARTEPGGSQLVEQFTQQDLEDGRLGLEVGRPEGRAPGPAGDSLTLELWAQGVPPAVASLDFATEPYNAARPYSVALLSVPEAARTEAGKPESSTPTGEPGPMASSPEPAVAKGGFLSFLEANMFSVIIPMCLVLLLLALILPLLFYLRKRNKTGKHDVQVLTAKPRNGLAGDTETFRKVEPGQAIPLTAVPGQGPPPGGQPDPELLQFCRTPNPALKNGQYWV

B1: M4-3(C1)/ML2(G3) IgG (antibody, V domains shown)
VH: QVQLQESGPGLVKPSQTLSLTCTVSGGSITSGYYWNWIRQHPGKGLEWIGYITFDGSNNYNPSLKSRVTISRDTSKNQFSLKLSSVTAADTAVYYCADFDYWGQGTLVTVSS
VL: DIQMTQSPSSLSASVGDRVTITCRASQGIRNYLNWYQQKPGKAPKLLIYYTSSLHSGVPSRFSGSGSGTDYTLTISSLQPEDFATYYCQQYSALPWTFGQGTKVEIKR
notes: Human IgG1
For the molecule B1, the entries for the “Fold increase over parent” value (in assay [1]; with cynomolgus MCSP D3 [2]) were 28.6 fold and 10 fold, respectively. For the same molecule, the Kd in [3] was found to be 0.07 nM; in the assay with cynomolgus MCSP D3 [4], 0.2 nM; in assay [5], 0.0045 nM; with cynomolgus MCSP D3 [6] it was 0.0038 nM; in [7], 1.8 nM; in the assay with cynomolgus MCSP D3 [8], 1.4 nM.

B2: 2 + 1 IgG Crossfab, inverted; CL/CH1 exchange (LC007/V9) (anti-MCSP/anti-huCD3) (bispecific antibody)
chain 1: DIVLTQSPSSLSASLGDRVTISCSASQGIRNYLNWYQQRPDGTVKLLIYYTSSLHSGVPSRFSGSGSGTDYSLTISNLEPEDIATYYCQQYSKLPWTFGGGTKLEIKRTVAAPSVFIFPPSDEQLKSGTASVVCLLNNFYPREAKVQWKVDNALQSGNSQESVTEQDSKDSTYSLSSTLTLSKADYEKHKVYACEVTHQGLSSPVTKSFNRGEC
chain 2: EVQLQESGPGLVKPSQSLSLTCSVTGYSITSGYYWNWIRQFPGNKLEWMGYITYDGSNNYNPSLKNRISITRDTSKNQFFLKLNSVTTEDTATYYCADFDYWGQGTTLTVSSASTKGPSVFPLAPSSKSTSGGTAALGCLVKDYFPEPVTVSWNSGALTSGVHTFPAVLQSSGLYSLSSVVTVPSSSLGTQTYICNVNHKPSNTKVDKKVEPKSCDKTHTCPPCPAPEAAGGPSVFLFPPKPKDTLMISRTPEVTCVVVDVSHEDPEVKFNWYVDGVEVHNAKTKPREEQYNSTYRVVSVLTVLHQDWLNGKEYKCKVSNKALGAPIEKTISKAKGQPREPQVCTLPPSRDELTKNQVSLSCAVKGFYPSDIAVEWESNGQPENNYKTTPPVLDSDGSFFLVSKLTVDKSRWQQGNVFSCSVMHEALHNHYTQKSLSLSPGK
chain 3: DIQMTQSPSSLSASVGDRVTITCRASQDIRNYLNWYQQKPGKAPKLLIYYTSRLESGVPSRFSGSGSGTDYTLTISSLQPEDFATYYCQQGNTLPWTFGQGTKVEIKSSASTKGPSVFPLAPSSKSTSGGTAALGCLVKDYFPEPVTVSWNSGALTSGVHTFPAVLQSSGLYSLSSVVTVPSSSLGTQTYICNVNHKPSNTKVDKKVEPKSC
chain 4: not shown
notes: also called 2+1 IgG Crossfab, inverted (V9)
What is called EC50 is the concentration needed to bring the measured effect to its halfway point. Read a low EC50 as a more potent agent. Consider B2, for which the EC50 is 6.1 nM in assay [9] and 0.57 nM in [10]. Also, the “EC50 [pM] of T cell-mediated killing (LDH release), MV-3 cells, human PBMCs E:T 10:1, about 24 h” value in assay [11] is 4.1 pM. In addition, the “EC50 [pM] of T cell-mediated killing (LDH release), WM266-4 cells, human PBMCs E:T 10:1, about 24 h” value in assay [11] came out at 3.7 pM.

B3: 2 + 1 IgG Crossfab, inverted; CL/CH1 exchange (LC007/anti-CD3) (anti-MCSP/anti-huCD3) (bispecific antibody)
chain 1: B2 chain 1
chain 2: B2 chain 2
chain 3: QAVVTQESALTTSPGETVTLTCRSSTGAVTTSNYANWVQEKPDHLFTGLIGGTNKRAPGVPARFSGSLIGDKAALTITGAQTEDEAIYFCALWYSNLWVFGGGTKLTVLSSASTKGPSVFPLAPSSKSTSGGTAALGCLVKDYFPEPVTVSWNSGALTSGVHTFPAVLQSSGLYSLSSVVTVPSSSLGTQTYICNVNHKPSNTKVDKKVEPKSC
chain 4: not shown
notes: also called 2+1 IgG Crossfab, inverted (anti-CD3)
As to B3, the concentration for a half-maximal effect (EC50) in assay [9] came out at 32 nM; in assay [10], 3.4 nM. In addition, the “EC50 [pM] of T cell-mediated killing (LDH release), MV-3 cells, human PBMCs E:T 10:1, about 24 h” value in assay [11] was 3 pM. The “EC50 [pM] of T cell-mediated killing (LDH release), WM266-4 cells, human PBMCs E:T 10:1, about 24 h” value in assay [11] was found to be 7.1 pM.

B4: 2 + 1 IgG Crossfab; CL/CH1 exchange (LC007/anti-CD3) (anti-MCSP/anti-huCD3) (bispecific antibody)
chain 1: B2 chain 1
chain 2: B2 chain 2
chain 3: B3 chain 3
chain 4: not shown
notes: also called 2+1 IgG Crossfab (anti-CD3)
Turning to B4, the concentration giving a half-maximal response (EC50) in [9] was 10.3 nM; in [10] it was 3.1 nM. In assay [11], the “EC50 [pM] of T cell-mediated killing (LDH release), MV-3 cells, human PBMCs E:T 10:1, about 24 h” value came to 11 pM. Also, in assay [11], the “EC50 [pM] of T cell-mediated killing (LDH release), WM266-4 cells, human PBMCs E:T 10:1, about 24 h” value is 11.3 pM.
